Ends that are not written are not given here.

The record followed here is US20110182814A1 (GENERAL HOSPITAL, published 2011).

The target of assay [1] is T1, plectin-1 (mouse, of mouse PDAC cells) (mouse, UniProt Q9QXS1 1-4691).
T1 construct: whole, on cells; On intact cells in the pulldown (photo-crosslink) and in flow cytometry; From cell lysate on a blot in the far western and the western; also called 500 kDa band
Description: flow cytometry, fluorescein-labelled phage on mouse PDAC cells against normal ductal cells. On the procedure:
(§1) Mouse Pancreatic ductal adenocarcinoma (PDAC) cells, human PDAC cells (i.e. MNA, 8988, SW1990, PaCa-2, ASPC), normal human ductal cells and normal pancreatic cells were incubated with 1 mM (FITC) FITC-labeled phage clone 27 or unrelated phage clone (amino acid sequence SNLHPSD, negative control (SEQ ID NO:XX)) for 1 hour at 37° C., washed 3× with DPBS and visualized by fluorescent microscopy (Nikon Eclipse TE2000-S, Insight QE, 40× objective). The cells were then harvested by incubation with trypsin, centrifuged, and analyzed (10,000 cells/sample) by flow cytometry on a Beckton Dickinson FACSCalibur (San Jose, Calif.). […] Mean fluorescence was plotted against cell number to show relative uptake between cell types.
Validation of Clone 27 as a PDAC marker (FIG. 1B) was done in experiments described herein, in addition to testing clones 1 (SGVEFLH, SEQ ID NO:4), 9 (SKKDTHH, SEQ ID NO:5), 15 (TMAPSIK, SEQ ID NO:6), 17 (TQHQVTA, SEQ ID NO:7), and 22 (VNDRNVK, SEQ ID NO:8). The phage coat proteins were fluorescein labeled then the extent of phage clone binding and specificity quantified for mouse PDAC and normal ductal cells via flow cytometry (FIG. 1B). […] Phage clone 15 was second in affinity with the remainder having nearly identical specificity.
For orientation: Flow cytometry measures light scatter and fluorescence of single cells or particles in a stream.

In assay [2] the target is human plectin-1 (of human PDAC cell lines) (human, UniProt Q15149 1-4684). Nature of the assay: flow cytometry, FITC-labelled phage on PDAC cell lines, average over lines, reference is the FITC-labelled unrelated phage clone. On the procedure:
as §1
The specificity of Clone 27 for human PDAC cells was evaluated as described in this example. Clone 27 and an unrelated phage clone were labeled with FITC, producing FITC-27 and a FITC-unrelated phage clone (negative control). Mouse PDAC cells as a positive control along with five human PDAC cell lines and with normal human ductal cells were incubated with each type of clone and then uptake of the clone was analyzed via fluorescence-activated cell sorter (FACS).

T1 sequence (Q9QXS1 whole entry): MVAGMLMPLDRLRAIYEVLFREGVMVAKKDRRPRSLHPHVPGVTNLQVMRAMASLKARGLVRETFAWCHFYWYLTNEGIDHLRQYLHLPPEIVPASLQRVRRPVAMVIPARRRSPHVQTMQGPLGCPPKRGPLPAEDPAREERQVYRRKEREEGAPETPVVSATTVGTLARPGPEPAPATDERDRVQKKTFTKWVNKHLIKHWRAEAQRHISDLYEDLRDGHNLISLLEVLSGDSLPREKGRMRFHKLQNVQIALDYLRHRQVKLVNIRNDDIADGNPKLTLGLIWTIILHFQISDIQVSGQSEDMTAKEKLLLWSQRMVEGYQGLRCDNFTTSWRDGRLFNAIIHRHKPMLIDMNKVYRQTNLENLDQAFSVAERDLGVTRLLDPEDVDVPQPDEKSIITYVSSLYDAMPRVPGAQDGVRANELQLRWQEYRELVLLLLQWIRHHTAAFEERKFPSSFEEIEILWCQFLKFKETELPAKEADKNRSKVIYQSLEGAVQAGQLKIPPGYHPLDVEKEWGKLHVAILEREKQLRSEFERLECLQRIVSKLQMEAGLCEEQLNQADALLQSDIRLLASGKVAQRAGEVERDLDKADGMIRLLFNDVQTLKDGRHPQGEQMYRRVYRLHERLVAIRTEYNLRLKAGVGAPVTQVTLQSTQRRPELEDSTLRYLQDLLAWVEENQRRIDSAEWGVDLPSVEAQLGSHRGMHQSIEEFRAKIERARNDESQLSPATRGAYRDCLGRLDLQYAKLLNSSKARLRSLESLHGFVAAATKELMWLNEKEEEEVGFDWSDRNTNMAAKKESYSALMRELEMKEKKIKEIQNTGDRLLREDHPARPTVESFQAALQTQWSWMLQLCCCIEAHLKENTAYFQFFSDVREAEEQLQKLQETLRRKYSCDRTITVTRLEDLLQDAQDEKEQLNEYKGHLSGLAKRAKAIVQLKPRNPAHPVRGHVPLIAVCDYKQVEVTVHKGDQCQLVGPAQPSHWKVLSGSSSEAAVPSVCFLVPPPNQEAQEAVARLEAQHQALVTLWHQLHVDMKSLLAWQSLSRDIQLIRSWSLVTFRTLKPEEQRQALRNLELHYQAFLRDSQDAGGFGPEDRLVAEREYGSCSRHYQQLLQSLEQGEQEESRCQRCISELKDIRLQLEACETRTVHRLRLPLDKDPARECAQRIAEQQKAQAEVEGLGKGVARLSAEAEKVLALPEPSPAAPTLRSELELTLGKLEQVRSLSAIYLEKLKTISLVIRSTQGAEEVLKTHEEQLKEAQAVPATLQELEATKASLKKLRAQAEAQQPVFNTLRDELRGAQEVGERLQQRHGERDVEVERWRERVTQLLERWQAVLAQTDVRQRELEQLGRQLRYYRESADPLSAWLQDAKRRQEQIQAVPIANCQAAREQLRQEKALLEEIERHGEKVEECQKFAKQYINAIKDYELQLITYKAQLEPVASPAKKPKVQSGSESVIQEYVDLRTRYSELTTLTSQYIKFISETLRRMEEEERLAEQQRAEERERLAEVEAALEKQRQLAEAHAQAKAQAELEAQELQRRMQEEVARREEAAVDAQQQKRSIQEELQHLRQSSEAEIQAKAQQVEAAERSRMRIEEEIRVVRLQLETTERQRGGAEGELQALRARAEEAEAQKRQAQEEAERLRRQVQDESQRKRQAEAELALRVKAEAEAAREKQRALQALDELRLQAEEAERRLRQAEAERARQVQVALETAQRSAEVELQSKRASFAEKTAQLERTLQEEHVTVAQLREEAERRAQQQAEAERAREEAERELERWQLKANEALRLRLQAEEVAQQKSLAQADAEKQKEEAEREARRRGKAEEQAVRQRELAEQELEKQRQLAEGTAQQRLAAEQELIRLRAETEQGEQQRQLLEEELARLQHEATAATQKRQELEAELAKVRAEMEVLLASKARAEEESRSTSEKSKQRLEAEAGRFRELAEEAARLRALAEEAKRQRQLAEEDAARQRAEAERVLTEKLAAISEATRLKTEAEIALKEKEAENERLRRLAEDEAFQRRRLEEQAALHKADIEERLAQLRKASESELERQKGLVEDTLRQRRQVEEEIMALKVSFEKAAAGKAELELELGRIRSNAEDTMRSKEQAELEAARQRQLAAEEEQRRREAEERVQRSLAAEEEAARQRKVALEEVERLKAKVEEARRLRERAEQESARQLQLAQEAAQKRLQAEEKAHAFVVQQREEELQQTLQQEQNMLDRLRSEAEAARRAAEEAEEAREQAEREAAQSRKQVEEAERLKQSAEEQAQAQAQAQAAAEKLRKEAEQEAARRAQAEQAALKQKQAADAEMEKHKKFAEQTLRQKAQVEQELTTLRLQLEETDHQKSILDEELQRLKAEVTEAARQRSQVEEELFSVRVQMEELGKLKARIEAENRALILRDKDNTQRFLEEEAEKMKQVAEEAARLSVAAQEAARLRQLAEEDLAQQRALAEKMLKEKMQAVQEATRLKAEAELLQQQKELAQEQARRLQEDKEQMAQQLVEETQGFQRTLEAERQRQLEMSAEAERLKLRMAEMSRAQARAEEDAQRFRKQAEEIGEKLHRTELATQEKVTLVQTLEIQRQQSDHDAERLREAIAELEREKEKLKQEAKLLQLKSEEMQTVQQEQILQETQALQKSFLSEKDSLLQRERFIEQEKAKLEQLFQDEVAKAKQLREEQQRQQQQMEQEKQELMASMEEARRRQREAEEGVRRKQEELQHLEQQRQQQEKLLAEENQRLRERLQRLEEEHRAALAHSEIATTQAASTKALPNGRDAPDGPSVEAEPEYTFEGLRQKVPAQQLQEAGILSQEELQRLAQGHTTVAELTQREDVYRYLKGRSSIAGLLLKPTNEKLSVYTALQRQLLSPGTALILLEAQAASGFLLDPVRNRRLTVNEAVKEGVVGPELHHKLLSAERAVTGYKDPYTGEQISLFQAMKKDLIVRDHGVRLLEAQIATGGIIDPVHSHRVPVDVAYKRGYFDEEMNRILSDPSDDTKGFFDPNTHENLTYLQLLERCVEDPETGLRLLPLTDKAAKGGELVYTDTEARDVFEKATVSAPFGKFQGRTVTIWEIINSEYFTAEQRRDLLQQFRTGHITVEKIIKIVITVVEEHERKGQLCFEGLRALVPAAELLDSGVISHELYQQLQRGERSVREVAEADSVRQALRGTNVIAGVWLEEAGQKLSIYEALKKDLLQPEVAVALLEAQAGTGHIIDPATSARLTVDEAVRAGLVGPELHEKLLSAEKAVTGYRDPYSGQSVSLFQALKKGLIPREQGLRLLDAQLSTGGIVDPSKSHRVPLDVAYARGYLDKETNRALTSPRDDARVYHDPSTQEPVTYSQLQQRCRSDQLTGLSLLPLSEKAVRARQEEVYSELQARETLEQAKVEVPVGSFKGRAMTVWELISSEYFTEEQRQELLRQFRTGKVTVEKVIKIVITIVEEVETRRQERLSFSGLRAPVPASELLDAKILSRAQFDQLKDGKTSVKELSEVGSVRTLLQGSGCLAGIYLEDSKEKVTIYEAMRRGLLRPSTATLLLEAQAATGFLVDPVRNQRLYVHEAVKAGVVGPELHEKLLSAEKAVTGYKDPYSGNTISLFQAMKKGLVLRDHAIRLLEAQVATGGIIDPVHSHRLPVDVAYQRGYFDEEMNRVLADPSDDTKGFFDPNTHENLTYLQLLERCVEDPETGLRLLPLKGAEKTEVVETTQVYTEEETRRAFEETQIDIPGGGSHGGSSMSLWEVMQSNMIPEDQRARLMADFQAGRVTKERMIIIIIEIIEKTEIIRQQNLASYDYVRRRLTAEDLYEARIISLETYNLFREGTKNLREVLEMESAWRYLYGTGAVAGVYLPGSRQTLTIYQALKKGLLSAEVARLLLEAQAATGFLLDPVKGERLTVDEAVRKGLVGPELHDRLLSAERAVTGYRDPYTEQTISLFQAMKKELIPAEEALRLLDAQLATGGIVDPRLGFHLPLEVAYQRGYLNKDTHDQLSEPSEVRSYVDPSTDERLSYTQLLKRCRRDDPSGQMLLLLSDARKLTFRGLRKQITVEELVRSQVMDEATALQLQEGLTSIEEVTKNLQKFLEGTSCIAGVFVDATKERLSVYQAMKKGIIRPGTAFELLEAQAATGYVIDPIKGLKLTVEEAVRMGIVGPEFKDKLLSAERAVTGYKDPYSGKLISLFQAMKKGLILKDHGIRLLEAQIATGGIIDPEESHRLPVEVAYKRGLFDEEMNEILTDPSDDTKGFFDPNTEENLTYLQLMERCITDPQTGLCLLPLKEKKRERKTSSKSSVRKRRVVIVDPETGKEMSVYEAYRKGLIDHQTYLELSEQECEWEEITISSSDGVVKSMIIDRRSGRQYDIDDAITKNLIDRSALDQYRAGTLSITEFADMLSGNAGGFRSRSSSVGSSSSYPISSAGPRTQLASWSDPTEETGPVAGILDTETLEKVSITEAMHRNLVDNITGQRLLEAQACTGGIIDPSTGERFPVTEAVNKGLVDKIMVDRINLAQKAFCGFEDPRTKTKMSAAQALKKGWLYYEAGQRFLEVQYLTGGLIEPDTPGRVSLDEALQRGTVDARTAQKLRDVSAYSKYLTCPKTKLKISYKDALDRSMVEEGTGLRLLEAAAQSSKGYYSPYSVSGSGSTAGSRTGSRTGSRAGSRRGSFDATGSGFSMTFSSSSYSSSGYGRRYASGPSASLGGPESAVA

B1: phage clone 27 displaying the peptide KTLLPTP (SEQ ID NO:1) (peptide)
peptide: KTLLPTP
modifications: also: displayed on M13 phage coat protein, phage labelled with FITC or biotin
notes: Tested as whole labelled phage, not as free peptide; also called FITC-27; PDAC-27; not shown: M13 phage coat protein carrying the 7-mer of the phD7 library (New England Biolabs)
For the molecule B1, in assay [1], the “specificity over normal ductal cells” value is 112 fold. In addition, the “specificity (ratio of clone 27/unrelated clone mean fluorescence)” value in assay [2] is 141 ratio.
